molecular target: T1, HLA-A0201 molecule on T2 cells (TAP-, HLA-A0201+) (human); test: T2 stabilization assay, surface HLA-A2 by flow cytometry (BB7.2)
T1 construct: Empty, thermolabile HLA-A0201 on T2 cells; also called HLA-A2; HLA-A2 molecule
Description: T2 cells (TAP-, HLA-A0201+) were incubated overnight at 37° C. at 1×10⁶ cells/ml in FCS-free RPMI medium supplemented with 10 ug/ml human beta-2m (Sigma, St Louis, Mo., USA) in the absence (negative control) or presence peptides at various final concentrations (50, 10 and 2 ug/ml). Brefeldin A (Sigma) at 5 ug/ml was added to the cultures for the final two hrs of incubation. Then T2 cells were washed and stained with anti-HLA-A2.1 (BB7.2) mAb conjugated to FITC for 30 min at 4° C. and followed by washing with staining buffer (PBS plus 1% FBS and 0.02% azide). The expression of the HLA-A2 on the cell surface was measured by flow cytometry on a FACScalibur (Becton Dickinson) and analyzed with FlowJo 9.6.3 software.

| Binder | binding result |
| --- | --- |
| NQMNLGATL (Synthetic 9-mer from Genemed Synthesis; also called native peptide; A24-native peptide) [native WT1 peptide NQMNLGATL (SEQ ID NO:5)] | no binding (tested: 50, 10 and 2 ug/ml tested) |
| NLMNLGATL (also called A24-het-1; Het24-1) [heteroclitic WT1 analogue peptide NLMNLGATL (SEQ ID NO:6)] | binds |
| NYMNLGATL (also called A24-het-2; Het24-2) [heteroclitic WT1 analogue peptide NYMNLGATL (SEQ ID NO:7)] | no binding (tested: 50, 10 and 2 ug/ml tested) |

Reference: patent US20200392183A1 (Memorial Sloan Kettering, published 2020)
